We go through 8 substances from patent US20040018487A1.

pEC50: −log10 of the molar value.

GST-DLG3 PDZ domains 1-2, sequence (Q92796 other isoform, or with tags, fused parts or gaps limits assumed): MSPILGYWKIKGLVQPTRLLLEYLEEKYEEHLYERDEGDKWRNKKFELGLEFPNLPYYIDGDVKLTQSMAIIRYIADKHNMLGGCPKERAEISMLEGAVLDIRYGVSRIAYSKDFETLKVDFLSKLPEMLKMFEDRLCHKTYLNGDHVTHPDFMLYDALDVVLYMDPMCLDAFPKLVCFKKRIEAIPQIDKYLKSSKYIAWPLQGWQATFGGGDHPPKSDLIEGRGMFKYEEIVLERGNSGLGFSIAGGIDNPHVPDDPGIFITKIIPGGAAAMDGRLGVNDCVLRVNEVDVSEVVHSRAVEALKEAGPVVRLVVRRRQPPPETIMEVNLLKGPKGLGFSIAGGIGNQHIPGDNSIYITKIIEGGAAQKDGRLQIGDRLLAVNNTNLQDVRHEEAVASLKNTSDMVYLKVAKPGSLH
GST-SAST1 KIAA PDZ domain, sequence (Q9Y2H9 other isoform, or with tags, fused parts or gaps): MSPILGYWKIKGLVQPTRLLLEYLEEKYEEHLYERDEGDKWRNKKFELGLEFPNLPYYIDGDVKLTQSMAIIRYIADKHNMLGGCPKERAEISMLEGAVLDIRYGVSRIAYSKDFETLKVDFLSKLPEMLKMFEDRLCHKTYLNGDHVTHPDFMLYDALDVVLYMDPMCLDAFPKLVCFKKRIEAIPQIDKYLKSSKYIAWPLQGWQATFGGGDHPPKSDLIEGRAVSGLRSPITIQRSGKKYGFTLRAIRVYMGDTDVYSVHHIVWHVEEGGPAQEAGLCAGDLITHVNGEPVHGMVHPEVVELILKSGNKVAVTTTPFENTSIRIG
GST-Magi3 PDZ domain 1, sequence (Q5TCQ9 other isoform, or with tags, fused parts or gaps limits assumed): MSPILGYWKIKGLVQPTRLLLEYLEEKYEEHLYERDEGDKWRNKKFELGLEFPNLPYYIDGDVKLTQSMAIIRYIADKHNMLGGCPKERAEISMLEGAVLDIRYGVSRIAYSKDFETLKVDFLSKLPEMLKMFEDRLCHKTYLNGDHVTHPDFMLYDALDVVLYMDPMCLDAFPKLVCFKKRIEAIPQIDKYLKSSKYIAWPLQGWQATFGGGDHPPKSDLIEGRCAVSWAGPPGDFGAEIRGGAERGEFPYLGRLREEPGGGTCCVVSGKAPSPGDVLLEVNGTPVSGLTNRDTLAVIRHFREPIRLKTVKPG

The assay concerns the target HPV 16 E6 C-terminal PL peptide (TQL), biotinylated (HPV 16). Put plainly: G assay, HPV16 E6 PL peptide titrated against a constant amount of GST-PDZ.
With GST-DLG2 PDZ domain 3, the negative logarithm of the EC50 (pEC50) was 5.80. Under “GST-DLG3 PDZ domains 1-2 (from UniProt Q92796 125-316)” stands 5.42; under GST-MAGI1 PDZ domain 2, 7.25; under “GST-Magi3 PDZ domain 1 (from UniProt Q5TCQ9 18-106)”, 6.51.

Take “GST-SAST1 KIAA PDZ domain (from UniProt Q9Y2H9 960-1062)”: the pEC50 was 6.24. This pEC50 is 0.27 log units lower than that of the substance before. On to GST-SAST2 PDZ domain, for which the negative logarithm of the EC50 (pEC50) is 5.92. GST-SIP1 PDZ domain 1: the negative logarithm of the EC50 (pEC50) was 5.12. To “GST-VARTUL (PDZ domain not stated) (from UniProt Q14160 720-955)” belongs 6.03.

One may read the pEC50 as the negative decadic logarithm of the EC50, by convention in mol/L.
